Phosphorylation data for one protein are collected here from US20210283233A1.

In the series the target is T1, rPfSEP-1A (recombinant polypeptide encoded by nt 2,431-3,249 of PF3D7_1021800, aa 810-1083 of PfSEP-1).
T1 chain: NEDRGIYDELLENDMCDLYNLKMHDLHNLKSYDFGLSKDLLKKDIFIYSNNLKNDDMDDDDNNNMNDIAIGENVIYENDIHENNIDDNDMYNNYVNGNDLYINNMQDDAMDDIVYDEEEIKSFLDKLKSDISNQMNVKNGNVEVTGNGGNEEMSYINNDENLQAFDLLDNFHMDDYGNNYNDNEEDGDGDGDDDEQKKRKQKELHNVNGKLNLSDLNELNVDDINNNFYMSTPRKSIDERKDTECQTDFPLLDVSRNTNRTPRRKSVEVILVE

B1: rPfCDPK-5 (recombinant Plasmodium falciparum calcium-dependent protein kinase 5, PF3D7_1337800) (protein)
chain: MKETEVEDMDTNRKDGKIKKKEKIVNMKNEEVKSTTKSTLADSDEDYSIITLCTKCLSKKLEDNKNRIILDSKAFKDNRLKGRCSVSSNEDPLDNKLNLSPYFDRSQIIQEIILMNNDELSDVYEIDRYKLGKGSYGNVVKAVSKRTGQQRAIKIIEKKKIHNIERLKREILIMKQMDHPNIIKLYEVYEDNEKLYLVLELCDGGELFDKIVKYGSFSEYEAYKIMKQIFSALYYCHSKNIMHRDLKPENILYVDNTEDSPIQIIDWGFASKCMNNHNLKSVVGTPYYIAPEILRGKYDKRCDIWSSGVIMYILLCGYPPFNGKNNDEILKKVEKGEFVFDSNYWARVSDDAKDLICQCLNYNYKERIDVEQVLKHRWFKKFKSNNLIINKTLNKTLIEKFKEFHKLCKIKKLAVTCIAYQLNEKDIGKLKKTFEAFDHNGDGVLTISEIFQCLKVNDNEFDRELYFLLKQLDTDGNGLIDYTEFLAACLDHSIFQQDVICRNAFNVFDLDGDGVITKDELFKILSFSAVQVSFSKEIIENLIKEVDSNNDGFIDYDEFYKMMTGVKE
As to B1, the phosphorylation result is “rPfCDPK-5 was found to phosphorylate rPfSEP-1A”.
